Experimental data taken from article PMC8263776, “Calmodulin-dependent KCNE4 dimerization controls membrane targeting” (Scientific Reports, 2021).

B1: KCNE4-CFP [mouse] / KCNE4-YFP [mouse] (parent)
chain 1: MLRMEPLNSTYPSAAASSSPLESHVPSNSSGNGNEYFYILVVMSFYGVFLIGIMLGYMKSKRREKKSSLLLLYKDEERLWGEAMKPLPMMSGLRSGQVPMMLNMLQESVAPALSCTLCSMEGDSVSSESSSPDVHLPIQEEGADDELEETSETPLNDSSEGSSENIHQNS
chain 2: B1 chain 1

Variants of: B1
Assay: FRET (CFP/YFP) in cells
Conditions: with KCNE4-YFP [mouse]; HEK-293 cells; n > 25 cells; parent: 12; read off a plot

Variant | response [%]
chain 1 L69A L70A L71A L72A | 7.2
